Read-outs that look alike come from different tables or passages of the source. Each block holds one molecule with its values, some of them ahead of it.
Tests used:
[1] = target: interleukin-6 (IL-6) (UniProt P05231); experiment: ELISA on IL-6
[2] = target: interleukin-6 (IL-6) (UniProt P05231); experiment: cell-based or functional assay
[3] = target: interleukin-6 (IL-6) (UniProt P05231); experiment: BLI (Octet), IL-6 immobilized on the biosensor
[4] = target: T1, interleukin-11 (IL-11) (UniProt P20809 22-199, limits assumed); experiment: ELISA
T1 sequence (looked up): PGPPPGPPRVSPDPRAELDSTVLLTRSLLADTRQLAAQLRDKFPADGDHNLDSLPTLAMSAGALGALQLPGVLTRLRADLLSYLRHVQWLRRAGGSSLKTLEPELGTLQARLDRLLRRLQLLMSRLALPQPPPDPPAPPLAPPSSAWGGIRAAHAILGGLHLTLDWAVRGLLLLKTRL

[5] = target: bovine serum albumin (BSA) (bovine, UniProt P02769 25-607); experiment: ELISA
[6] = target: T2, interleukin-6 (IL-6) (UniProt P05231 30-212); experiment: ELISA on IL-6
[7] = target: T2, interleukin-6 (IL-6); experiment: cell-based or functional assay
[8] = target: T2, interleukin-6 (IL-6); experiment: cell-based or functional assay; remark: listed apart in the source
[9] = target: T2, interleukin-6 (IL-6); experiment: BLI (Octet), IL-6 immobilized on the biosensor
Description: This method measures binding reactions at the surface of a fiber optic biosensor functionalized with an immobilized target moiety (e.g., IL-6).

[10] = target: interleukin-6 (IL-6) (UniProt P05231); experiment: cell-based or functional assay; remark: listed apart in the source
[11] = target: T2, interleukin-6 (IL-6); experiment: cell-based or functional assay; remark: listed apart in the source
[12] = target: T3, interleukin-11 (IL-11) (UniProt P20809); experiment: ELISA on IL-11
T3 sequence (looked up): T1 sequence (looked up)

[13] = target: T3, interleukin-11 (IL-11); experiment: cell-based or functional assay
[14] = target: T1, interleukin-11 (IL-11); experiment: ELISA on IL-11
Protocol: Binding of anti-IL-11 Multabodies to IL-11 was assessed using an enzyme-linked immunosorbent assay (ELISA).

[15] = target: T1, interleukin-11 (IL-11); experiment: cell-based or functional assay

Chain of bovine serum albumin (BSA) (P02769 25-607 limits assumed): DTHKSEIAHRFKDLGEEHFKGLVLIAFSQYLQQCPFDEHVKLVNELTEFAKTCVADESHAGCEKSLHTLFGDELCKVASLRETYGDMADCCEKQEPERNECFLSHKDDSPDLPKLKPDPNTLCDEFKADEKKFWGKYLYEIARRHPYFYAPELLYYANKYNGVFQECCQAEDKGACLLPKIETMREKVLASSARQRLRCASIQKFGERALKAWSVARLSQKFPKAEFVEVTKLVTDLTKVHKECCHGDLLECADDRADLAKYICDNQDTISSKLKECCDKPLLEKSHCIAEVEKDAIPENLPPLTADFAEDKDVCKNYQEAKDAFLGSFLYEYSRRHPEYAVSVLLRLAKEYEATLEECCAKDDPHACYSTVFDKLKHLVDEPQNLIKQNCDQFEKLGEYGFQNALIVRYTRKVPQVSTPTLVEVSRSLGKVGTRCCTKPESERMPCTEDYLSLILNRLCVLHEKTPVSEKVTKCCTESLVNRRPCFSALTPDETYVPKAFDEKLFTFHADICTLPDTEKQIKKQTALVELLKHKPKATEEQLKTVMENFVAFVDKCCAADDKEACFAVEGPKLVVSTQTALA
Chain of interleukin-6 (IL-6) (UniProt P05231) (P05231 30-212 limits assumed): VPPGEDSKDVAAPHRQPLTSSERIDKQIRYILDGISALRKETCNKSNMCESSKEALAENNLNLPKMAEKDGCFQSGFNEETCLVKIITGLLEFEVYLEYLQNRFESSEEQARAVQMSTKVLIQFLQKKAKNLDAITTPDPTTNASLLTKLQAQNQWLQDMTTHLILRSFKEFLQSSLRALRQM

Molecule: Siltuximab Multabody (MB) (from UniProt P04945 1-108)
EC50 [1]: 0.0353 nM | Fold change (IgG vs. Multabody), IL-6 Bioassay IC50 [2]: 26 fold | Fold change, INA-6 proliferation IC50 (IgG against MB) [2]: 9 fold | IC50 (nM), proliferation of IL-6-dependent INA-6 cells (CellTiter-Glo) [2]: 0.67 nM | IC50 (pM), IL-6 Bioassay (luciferase reporter cells) [2]: 44 pM | Kd [3]: < 0.001 nM

B2: Clazakizumab Multabody (MB) (protein, part only; not given: Fab constants, linkers, ferritin carriers, not shown: another chain or arm of the molecule; a dimerising Fc or GST; large carriers; small tags and cut ends)
VH: EVQLVESGGGLVQPGGSLRLSCAASGFSLSNYYVTWVRQAPGKGLEWVGIIYGSDETAYATSAIGRFTISRDNSKNTLYLQMNSLRAEDTAVYYCARDDSSDWDAKFNLWGQGTLVTVSS
VL: AIQMTQSPSSLSASVGDRVTITCQASQSINNELSWYQQKPGKAPKLLIYRASTLASGVPSRFSGSGSGTDFTLTISSLQPDDFATYYCQQGYSLRNIDNAFGGGTKVEIK
EC50 [1]: 0.0543 nM | Fold change (IgG vs. Multabody), IL-6 Bioassay IC50 [10]: 6 fold | IC50 (pM), IL-6 Bioassay (luciferase reporter cells) [10]: 100 pM | Kd [3]: < 0.001 nM

B4: Olokizumab Multabody (MB) (protein, part only; not given: Fab constants, linkers, ferritin carriers, not shown: another chain or arm of the molecule; a dimerising Fc or GST; large carriers; small tags and cut ends)
VH: EVQLVESGGGLVQPGGSLRLSCAASGFNFNDYFMNWVRQAPGKGLEWVAQMRNKNYQYGTYYAESLEGRFTISRDDSKNSLYLQMNSLKTEDTAVYYCARESYYGFTSYWGQGTLVTVSS
VL: DIQMTQSPSSLSASVGDRVTITCQASQDIGISLSWYQQKPGKAPKLLIYNANNLADGVPSRFSGSGSGTDFTLTISSLQPEDFATYYCLQHNSAPYTFGQGTKLEIK
EC50 [1]: 0.0454 nM | Fold change (IgG vs. Multabody), IL-6 Bioassay IC50 [10]: 60 fold | Fold change (IgG/MB), IL-6-induced pSTAT3/STAT3 IC50, HCT-15 cells [10]: 7 fold | Fold change (IgG/MB), IL-6-induced pSTAT3/STAT3 IC50, THP-1 cells [10]: 8 fold | Fold change, INA-6 proliferation IC50 (IgG against MB) [10]: 16 fold | IC50 (nM), IL-6-induced pSTAT3/STAT3 (Meso Scale Discovery), HCT-15 cells [10]: 0.03 nM | IC50 (nM), IL-6-induced pSTAT3/STAT3 (Meso Scale Discovery), THP-1 cells [10]: 0.06 nM | IC50 (nM), proliferation of IL-6-dependent INA-6 cells (CellTiter-Glo) [10]: 0.33 nM | IC50 (pM), IL-6 Bioassay (luciferase reporter cells) [10]: 9.4 pM | Kd [3]: < 0.001 nM

B7: TPP-29536 IgG (antibody, V domains shown)
VH: EVQLLESGGGLVQPGGSLRLSCAASGFTFSSYGMHWVRQAPGKGLEWVAVISYDGSYKYYADSVKGRFTISRDNSKNTLYLQMNSLRAEDTAVYYCAAGVPDYWGQGTLVTVSS
VL: QSVLTQPPSASGTPGQRVTISCSGSSSNIGSDYDVHWYQQLPGTAPKLLIYSNEERPSGVPDRFSGSKSGTSASLAISGLRSEDEADYYCSAWDSSLSGPVFGGGTKLTVL
notes: Tested as parental IgG; also called anti-IL-11 IgG; parental IgG control
EC50 [14]: 2.71 nM | IC50 (nM), IL-11-dependent pSTAT3/STAT3 (Meso Scale Discovery), Panc-1 cells [15]: 0.79 nM

Second part, the molecule after the results:

binding result [4]: no binding | binding result [5]: no binding | EC50 [6]: 0.154 nM | IC50 (pM), IL-6 Bioassay (luciferase reporter cells) [7]: 1150 pM | IC50 (nM), proliferation of IL-6-dependent INA-6 cells (CellTiter-Glo) [8]: 5.88 nM | Kd [9]: < 0.001 nM
B1: siltuximab immunoglobulin (IgG) (antibody, V domains shown)
VH: EVQLVESGGKLLKPGGSLKLSCAASGFTFSSFAMSWFRQSPEKRLEWVAEISSGGSYTYYPDTVTGRFTISRDNAKNTLYLEMSSLRSEDTAMYYCARGLWGYYALDYWGQGTSVTVSS
VL: QIVLIQSPAIMSASPGEKVTMTCSASSSVSYMYWYQQKPGSSPRLLIYDTSNLASGVPVRFSGSGSGTSYSLTISRMEAEDAATYYCQQWSGYPYTFGGGTKLEIKR
notes: Tested as parental IgG; also called siltuximab IgG; CNTO-328

binding result [4]: no binding | binding result [5]: no binding | EC50 [6]: 0.176 nM | IC50 (pM), IL-6 Bioassay (luciferase reporter cells) [7]: 604 pM | Kd [9]: < 0.001 nM
B3: clazakizumab IgG (antibody, V domains shown)
VH: B2 VH
VL: AIQMTQSPSSLSASVGDRVTITCQASQSINNELSWYQQKPGKAPKLLIYRASTLASGVPSRFSGSGSGTDFTLTISSLQPDDFATYYCQQGYSLRNIDNAFGGGTKVEIKR
notes: Tested as parental IgG

binding result [4]: no binding | binding result [5]: no binding | EC50 [6]: 0.201 nM | IC50 (pM), IL-6 Bioassay (luciferase reporter cells) [7]: 566 pM | IC50 (nM), IL-6-induced pSTAT3/STAT3 (Meso Scale Discovery), HCT-15 cells [11]: 0.2 nM | IC50 (nM), IL-6-induced pSTAT3/STAT3 (Meso Scale Discovery), THP-1 cells [11]: 0.48 nM | IC50 (nM), proliferation of IL-6-dependent INA-6 cells (CellTiter-Glo) [8]: 5.29 nM | Kd [9]: < 0.001 nM
B5: olokizumab IgG (antibody, V domains shown)
VH: B4 VH
VL: DIQMTQSPSSLSASVGDRVTITCQASQDIGISLSWYQQKPGKAPKLLIYNANNLADGVPSRFSGSGSGTDFTLTISSLQPEDFATYYCLQHNSAPYTFGQGTKLEIKR
notes: Tested as parental IgG; also called CDP6038

EC50 [12]: 0.659 nM | fold better binding than the parental IgG control [12]: 3 to 4 fold | Fold change, IL-11-dependent pSTAT3/STAT3 IC50 (IgG against MB), Panc-1 cells [13]: 6 fold | IC50 (nM), IL-11-dependent pSTAT3/STAT3 (Meso Scale Discovery), Panc-1 cells [13]: 0.13 nM
B6: anti-IL-11 Multabody (MB), source antibody TPP-29536 (protein, part only; not given: Fab constants, linkers, ferritin carriers, not shown: another chain or arm of the molecule; a dimerising Fc or GST; large carriers; small tags and cut ends)
VH: B7 VH
VL: B7 VL

From US20260209339A1 (RADIANT BIOTHERAPEUTICS, published 2026)
